In US20230175069A1 (published 2023):

Experiments:
[1] = target: T1, HER3 (Erb-B2 Receptor Tyrosine Kinase 3) (human, UniProt P21860 20-1342); assay: co-immunoprecipitation with anti-HER3 antibody from T47D cells expressing wtCCDC170, western blot with anti-CCDC170 antibody
T1 construct: Endogenous protein of T47D cells, in cell lysate; also called ErbB3

[2] = target: T2, HER2 (Erb-B2 Receptor Tyrosine Kinase 2) (human, UniProt P04626 23-1255); assay: co-immunoprecipitation with anti-HER2 antibody from T47D cells expressing wtCCDC170, western blot with anti-CCDC170 antibody
T2 construct: Endogenous protein of T47D cells, in cell lysate; also called HER2/neu

[3] = target: T3, SRC (SRC Proto-Oncogene, Non-Receptor Tyrosine Kinase) (human, UniProt P12931 2-536); assay: co-immunoprecipitation with anti-SRC antibody from T47D cells expressing wtCCDC170, western blot with anti-CCDC170 antibody
T3 construct: Endogenous protein of T47D cells, in cell lysate

Measured: binding result

T1 sequence (P21860 20-1342 limits assumed): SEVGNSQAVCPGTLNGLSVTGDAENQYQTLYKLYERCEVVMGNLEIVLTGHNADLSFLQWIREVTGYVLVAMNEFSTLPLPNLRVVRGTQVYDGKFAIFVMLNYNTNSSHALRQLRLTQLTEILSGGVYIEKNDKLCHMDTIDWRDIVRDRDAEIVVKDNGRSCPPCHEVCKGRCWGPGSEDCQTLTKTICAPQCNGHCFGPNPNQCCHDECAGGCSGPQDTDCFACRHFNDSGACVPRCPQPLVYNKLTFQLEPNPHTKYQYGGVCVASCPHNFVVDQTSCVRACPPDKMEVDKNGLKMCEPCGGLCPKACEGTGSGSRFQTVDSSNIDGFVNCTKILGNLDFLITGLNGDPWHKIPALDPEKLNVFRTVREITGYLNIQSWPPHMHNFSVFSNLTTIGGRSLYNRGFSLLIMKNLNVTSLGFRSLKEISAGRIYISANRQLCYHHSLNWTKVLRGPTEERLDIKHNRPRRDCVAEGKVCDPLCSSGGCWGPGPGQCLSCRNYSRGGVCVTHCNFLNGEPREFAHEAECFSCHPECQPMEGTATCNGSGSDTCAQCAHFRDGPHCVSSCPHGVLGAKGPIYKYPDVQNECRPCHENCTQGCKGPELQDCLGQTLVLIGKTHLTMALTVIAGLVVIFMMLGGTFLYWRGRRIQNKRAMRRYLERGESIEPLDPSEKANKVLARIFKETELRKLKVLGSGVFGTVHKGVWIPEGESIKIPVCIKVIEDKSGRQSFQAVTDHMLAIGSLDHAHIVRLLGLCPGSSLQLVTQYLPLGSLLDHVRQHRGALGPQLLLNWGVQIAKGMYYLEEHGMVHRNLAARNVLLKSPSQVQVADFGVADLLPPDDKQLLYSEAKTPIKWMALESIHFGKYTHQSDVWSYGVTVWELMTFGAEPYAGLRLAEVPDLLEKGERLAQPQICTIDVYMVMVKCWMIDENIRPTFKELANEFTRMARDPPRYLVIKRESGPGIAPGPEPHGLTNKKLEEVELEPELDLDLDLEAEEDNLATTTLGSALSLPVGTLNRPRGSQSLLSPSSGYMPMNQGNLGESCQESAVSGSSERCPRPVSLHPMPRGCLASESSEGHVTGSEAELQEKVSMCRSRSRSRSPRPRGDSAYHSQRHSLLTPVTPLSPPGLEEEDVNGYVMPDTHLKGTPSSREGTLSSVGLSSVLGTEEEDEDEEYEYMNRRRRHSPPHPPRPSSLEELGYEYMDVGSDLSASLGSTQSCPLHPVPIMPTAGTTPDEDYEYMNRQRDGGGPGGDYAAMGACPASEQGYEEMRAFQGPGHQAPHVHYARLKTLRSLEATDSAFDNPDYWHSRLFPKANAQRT

B1: wild type CCDC170 (Coiled-Coil Domain Containing 170) (other)
chain: MSLDCTSHIALGAASPAPEETYDHLSEVPVTREQLNHYRNVAQNARSELAATLVKFECAQSELQDLRSKMLSKEVSCQELKAEMESYKENNARKSSLLTSLRDRVQELEEESAALSTSKIRTEITAHAAIKENQELKKKVVELNEKLQKCSKENEENKKQVSKNCRKHEEFLTQLRDCLDPDERNDKASDEDLILKLRDLRKENEFVKGQIVILEETINVHEMEAKASRETIMRLASEVNREQKKAASCTEEKEKLNQDLLSAVEAKEALEREVKIFQERLLAGQQVWDASKQEVSLLKKSSSELEKSLKASQDAVTTSQSQYFSFREKIAALLRGRLSMTGSTEDTILEKIREMDSREESRDRMVSQLEAQISELVEQLGKESGFHQKALQRAQKAENMLETLQGQLTHLEAELVSGGVLRDNLNFEKQKYLKFLDQLSQKMKLDQMAAELGFDMRLDVVLARTEQLVRLESNAVIENKTIAHNLQRKLKTQKERLESKELHMSLLRQKIAQLEEEKQARTALVVERDNAHLTIRNLQKKVERLQKELNTCRDLHTELKAKLADTNELKIKTLEQTKAIEDLNKSRDQLEKMKEKAEKKLMSVKSELDTTEHEAKENKERARNMIEVVTSEMKTLKKSLEEAEKREKQLADFREVVSQMLGLNVTSLALPDYEIIKCLERLVHSHQHHFVTCACLKDVTTGQERHPQGHLQLLH
notes: Ectopically expressed in T47D cells and assayed in cell lysate; also called wtCCDC170; WT
no binding: all assays above
